Laboratory results published in doi:10.1101/2025.05.23.655736 (bioRxiv, 2025).

Target: T1, CHAP domain of Streptococcus pneumoniae PcsB (residues A274-D392) (Streptococcus pneumoniae, UniProt Q8DMY4 274-392)
T1 sequence (looked up): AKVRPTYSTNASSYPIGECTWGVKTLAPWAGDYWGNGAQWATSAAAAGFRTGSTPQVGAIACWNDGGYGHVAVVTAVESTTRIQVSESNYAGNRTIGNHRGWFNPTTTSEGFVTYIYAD
Assay: SPR

AQKAA (D-isoglutamine at position 2 (iQ); D-alanine at positions 4 and 5) [synthetic pneumococcal stem pentapeptide L-Ala-D-isoGln-L-Lys-D-Ala-D-Ala]
fold change of KD against AEKADAD: ~15 fold
